Data on 1 molecule can be found in publication PMC12052454.

Primed or numbered codes have the meaning given here. The star is where a group is joined. 5FAM = O=C1OC2(c3ccc(O)cc3Oc3cc(O)ccc32)c2ccc(C(=O)*)cc21; Dabcyl′ = CN(C)c1ccc(/N=N/c2ccc(C(=O)*)cc2)cc1

This experiment has as its target ADAM9-P750L (rs144750648) (human) (UniProt Q13443). Also on record: unit not given beside the values.
Sequence of UniProt Q13443 (Q13443 29-819 P750L): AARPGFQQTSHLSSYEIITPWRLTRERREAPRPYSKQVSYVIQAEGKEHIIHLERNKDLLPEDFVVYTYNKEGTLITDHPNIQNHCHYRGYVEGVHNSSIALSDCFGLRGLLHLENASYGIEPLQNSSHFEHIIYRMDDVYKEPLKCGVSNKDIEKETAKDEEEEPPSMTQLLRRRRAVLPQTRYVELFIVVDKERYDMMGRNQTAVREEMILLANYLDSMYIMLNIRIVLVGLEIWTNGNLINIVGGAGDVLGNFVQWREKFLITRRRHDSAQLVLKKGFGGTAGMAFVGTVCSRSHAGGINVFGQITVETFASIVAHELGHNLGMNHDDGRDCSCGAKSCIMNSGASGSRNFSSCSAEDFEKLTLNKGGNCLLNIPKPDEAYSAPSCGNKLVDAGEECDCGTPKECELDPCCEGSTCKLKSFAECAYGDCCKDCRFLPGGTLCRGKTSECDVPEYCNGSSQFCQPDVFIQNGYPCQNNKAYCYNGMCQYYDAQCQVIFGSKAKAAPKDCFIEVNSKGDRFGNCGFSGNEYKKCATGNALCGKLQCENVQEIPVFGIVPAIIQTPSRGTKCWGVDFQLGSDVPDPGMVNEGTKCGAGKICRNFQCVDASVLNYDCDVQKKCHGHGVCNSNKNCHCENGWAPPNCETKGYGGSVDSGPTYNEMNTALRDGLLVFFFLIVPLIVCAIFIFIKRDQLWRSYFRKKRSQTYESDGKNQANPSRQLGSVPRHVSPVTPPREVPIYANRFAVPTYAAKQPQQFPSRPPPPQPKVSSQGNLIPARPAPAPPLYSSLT

B1: ADAM9 fluorogenic substrate PEPDAB010 (Dabcyl-…[5-FAM]-NH2) (peptide)
peptide: {Dabcyl′}-SPLAQAVRSSK(5FAM)-NH2
SMILES: CC(C)C[C@H](NC(=O)[C@@H]1CCCN1C(=O)[C@H](CO)NC(=O)c1ccc(/N=N/c2ccc(N(C)C)cc2)cc1)C(=O)N[C@@H](C)C(=O)N[C@@H](CCC(N)=O)C(=O)N[C@@H](C)C(=O)N[C@H](C(=O)N[C@@H](CCCNC(=N)N)C(=O)N[C@@H](CO)C(=O)N[C@@H](CO)C(=O)N[C@@H](CCCCNC(=O)c1ccc2c(c1)C(=O)OC21c2ccc(O)cc2Oc2cc(O)ccc21)C(N)=O)C(C)C
As for B1, the Km of cleavage of the fluorogenic substrate PEPDAB010 (Lineweaver-Burk plot, lysates of transfected HEK293 cells), reduction compared to ADAM9 WT (% reduction of Km compared to ADAM9 WT) is 41.9.
